# How the values were obtained:
# [1] = tested on: O=C(O)C(F)Cl; experiment: LDH-coupled NADH oxidation, A340, 96-well plate, Michaelis-Menten fit; assay type: biochemical, Dechloromonas aromatica (nom. nud.); settings: 0.1 M Tris pH 8.0, room temperature not stated for plate, 40 ug DEF2, 50 ug LDH, 400 uM NADH, racemic substrate 1-30 mM
# [2] = molecular target: T1, rabbit heart lactate dehydrogenase (Oryctolagus cuniculus, UniProt A0A5F9DPL1); experiment: NADH oxidation, A340; assay type: biochemical; settings: 0.300 mM NADH, 0.1 M Tris pH 9.0
# T1 construct: gene LDHB; commercial native enzyme from heart (MilliporeSigma), tetramer
# T1 sequence (A0A5F9DPL1 1-334): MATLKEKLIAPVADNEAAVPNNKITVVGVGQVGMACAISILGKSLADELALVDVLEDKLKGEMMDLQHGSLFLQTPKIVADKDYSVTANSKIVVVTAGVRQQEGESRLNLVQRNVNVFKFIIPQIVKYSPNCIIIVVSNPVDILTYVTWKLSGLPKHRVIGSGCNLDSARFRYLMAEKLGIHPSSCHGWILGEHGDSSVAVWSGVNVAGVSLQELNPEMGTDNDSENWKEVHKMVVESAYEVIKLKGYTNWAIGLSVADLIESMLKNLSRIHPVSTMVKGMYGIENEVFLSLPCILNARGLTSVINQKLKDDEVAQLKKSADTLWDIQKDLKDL
Molecule,Km [1] [mM],kcat [1] [s⁻¹],"NADH oxidation, A340 [2]"
DEF2 (Dechloromonas aromatica RCB),6.0,0.00533,–
O=CC(=O)O [glyoxylate],–,–,activity with commercial rabbit heart lactate dehydrogenase with glyoxylate was too slow

# Source: paper PMC12350541, “Continuous Spectrophotometric Assay for Defluorinase and Dechlorinase Activities With α‐Halocarboxylic Acids” (Microbial Biotechnology, 2025)
